Data on two sequences can be found in patent US20100203031.

Common to all, as to assay: cell_activity
The test system of data set [1] is HBB5 H3/H4b heterodimer H3: 30S,33H,38R,44K,68Y,70S,77T; H4b: 24V,43L,44A,70S,75E,77R,80K,87L,96R. To be noted: [none]; yeast beta-galactosidase value.
Data set [2] deals with HBB5 H3 V105A I132V/H4b heterodimer H3: 30S,33H,38R,44K,68Y,70S,77T,V105A,I132V; H4b: 24V,43L,44A,70S,75E,77R,80K,87L,96R. To be noted: [none]; yeast beta-galactosidase value.
For data set [3], the system named is HBB5 H3 V105A I132V/H4a heterodimer H3: 30S,33H,38R,44K,68Y,70S,77T,V105A,I132V; H4a: 19S,32T,44A,70S,75E,77R,80K,96R. As to conditions: [none]; yeast beta-galactosidase value.
Data set [4] deals with HBB5 H3/H4a heterodimer H3: 30S,33H,38R,44K,68Y,70S,77T; H4a: 19S,32T,44A,70S,75E,77R,80K,96R. To be noted: [none]; yeast beta-galactosidase value.
The test system of data set [5] is HBB5 H3 I132V/H4a heterodimer H3: 30S,33H,38R,44K,68Y,70S,77T,I132V; H4a: 19S,32T,44A,70S,75E,77R,80K,96R. As to conditions: [none]; yeast beta-galactosidase value.
In data set [6] the test system is HBB5 H3 I132V/H4b heterodimer H3: 30S,33H,38R,44K,68Y,70S,77T,I132V; H4b: 24V,43L,44A,70S,75E,77R,80K,87L,96R. As to conditions: [none]; yeast beta-galactosidase value.
The subject of data set [7] is HBB5 H3 V105A/H4b heterodimer H3: 30S,33H,38R,44K,68Y,70S,77T,V105A; H4b: 24V,43L,44A,70S,75E,77R,80K,87L,96R. As to conditions: [none]; yeast beta-galactosidase value.
In data set [8] the test system is HBB5 H3 V105A/H4a heterodimer H3: 30S,33H,38R,44K,68Y,70S,77T,V105A; H4a: 19S,32T,44A,70S,75E,77R,80K,96R. As to conditions: [none]; yeast beta-galactosidase value.
Data set [9] has as its system HprCH3.3 G19S/HprCH3.4 G19S heterodimer chain1: G19S,Y33H,42A,43L; chain2: G19S,S32T,Y33H,Q44R,R68Y,R70S,72T,D75N,I77N. To be noted: [none]; no LacZ+ foci.
Data set [10] relates to HprCH3.3/HprCH3.4 heterodimer chain1: KNSHQS/QRRDI/42A43L (Y33H,42A,43L); chain2: KNTHQS/RYSNN/72T (S32T,Y33H,Q44R,R68Y,R70S,72T,D75N,I77N). To be noted: [none]; CHO chromosomal assay, maximum.
Data set [11] relates to HprCH3.3/HprCH3.4 G19S heterodimer chain1: Y33H,42A,43L; chain2: G19S,S32T,Y33H,Q44R,R68Y,R70S,72T,D75N,I77N. As to conditions: [none]; CHO chromosomal assay, maximum.
Data set [12] relates to HprCH3.3 G19S/HprCH3.4 heterodimer chain1: G19S,Y33H,42A,43L; chain2: S32T,Y33H,Q44R,R68Y,R70S,72T,D75N,I77N. As to conditions: [none]; CHO chromosomal assay, maximum.

For “TTGGTCTCCTTAAACCTGTCTTGA (double strand) [HBB5]”, the activity in data set [1] is 0.29; in [2] it was 0.56; in [3], 0.77; in data set [4] it was 0.34; in data set [5], 0.49; in data set [6], 0.37. Besides, the values for the activity in [7] and in [8] were 0.37 and 0.47, respectively.
For the sequence “TCGAGATGTCATGAAAGAGATGGA (double strand) [HprCH3]”, the activity (LacZ repair frequency) in [9] was < 6e-06; in data set [10] it was 0.002; in data set [11], 0.012; in data set [12] it was 0.0115.
